Experiment [1] has as its target T1, recombinant mature dimeric myostatin (human and mouse (mature sequences 100% …, UniProt O08689 268-376)).
T1 construct: also called GDF-8; mature myostatin
T1 sequence: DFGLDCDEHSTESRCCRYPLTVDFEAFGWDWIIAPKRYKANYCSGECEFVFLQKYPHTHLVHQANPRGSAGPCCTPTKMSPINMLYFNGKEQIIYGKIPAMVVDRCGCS
The experiment in a line: ActRIIb receptor neutralisation ELISA: antibody pre-incubated with 2 nM biotinylated myostatin, binding to coated ActRIIb. Here is the method:
Recombinant soluble ActRIIb (R&D Systems 339-RBB) was coated in wells of an ELISA plate at 1 μg/ml in carbonate buffer overnight at 4° C. Plates were blocked (see Block solution above at 2.3) and washed following standard ELISA protocols. In parallel, 2 nM biotinylated myostatin (in-house, as described in 1.1, biotinylated material) was pre-incubated with an antibody dilution series consisting of 10B3, 10B3C, and a negative control (IgG1 isotype control) for 2 hours at 37° C. The biotinylated myostatin:antibody reactions were then added to the ActRIIb coated plate for 1 hour at 37° C. Standard wash procedures were followed prior to addition of 1:1000 diluted streptavidin-HRP conjugate (Dako P0397) and a further 37° C. incubation for 1 hour. Plates were again washed and assayed at absorbance 490 nm following OPD substrate (Sigma) and acid stop solution treatment. Inhibition curves and IC50 values for the inhibition of myostatin activity are shown in FIG. 5 and Table 8 respectively.
A general note: In an ELISA, binding on a coated surface is turned into a signal by an enzyme label.

The target of experiment [2] is T1, recombinant mature dimeric myostatin. The experiment in a line: BIAcore T100 SPR, antibody captured on protein A, myostatin analyte, all curves Bivalent model. The procedure:
(§1) The affinity of 10B3 mouse parental and 10B3C for recombinant myostatin was assessed by BIAcore™ (surface plasmon resonance) analysis. Analysis was carried out by the use of a capture surface: anti-mouse IgG was coupled to a C1 chip by primary amine coupling for 10B3 mouse parental; and a protein A surface was created on a C1 chip by primary amine coupling for 10B3 chimera.
(§2) After capture, recombinant myostatin was passed over the surface at 64 nM, 16 nM, 4 nM, 1 nM, 0.25 nM and 0.0625 nM, with a buffer injection (i.e. 0 nM) used for double referencing. There was a regeneration step between each analyte injection, after which the new antibody capture event occurred before the next injection of myostatin. The data was analysed using both the 1:1 model and the Bivalent model inherent to the T100 machines analysis software (see Table 6). Both capture surfaces could be regenerated using 100 mM phosphoric acid, the work was carried out using HBS-EP as the running buffer and using 25° C. as the analysis temperature.
(In SPR one partner is held on a chip, and binding of the other changes the refractive index at the surface.)

Experiment [3] has the same target. The experiment in a line: cell-based or functional assay.
The target is the same in experiment [4]. The experiment in a line: cell-based or functional assay. The source holds these as a separate data set.
For experiment [5] the target is unchanged. The experiment in a line: ELISA, myostatin coated at 10 ng/well. The procedure: 10B3 and 10B3 chimera (10B3C) bound myostatin (R&D Systems, 788-G8-010/CF) in a sandwich ELISA. Plates were coated with myostatin at 10 ng/well and blocked with Block solution (PBS, 0.1% TWEEN and 1% BSA). Following washing (PBS, 0.1% TWEEN), antibody was incubated at 37° C. for 2 hours over a dilution series and plates washed again prior to incubation at 37° C. for 1 hour with anti-mouse HRP or anti-human HRP (Dako, P0161 & Sigma, A-8400, respectively). Plates were again washed and OPD substrate (Sigma, P9187) added until colourometric reaction occurred and the reaction stopped by the addition of H₂SO₄.

Experiment [6] has the same target. The experiment in a line: Kinexa solution phase affinity. The procedure:
Kinexa (Sapidyne Instruments) solution phase affinity was used to determine the overall affinity for a range of anti-myostatin molecules. Myostatin beads were prepared either by adsorption (polymethylmethacrylate beads-PMMA) or amine coupling (NHS-activated sepharose beads). The range of anti-myostatin molecules studied necessitated the generation of beads coated with different concentrations of myostatin. For the solution phase portion of the assay, a fixed concentration of antibody was incubated with a broad range of myostatin concentrations and allowed to reach equilibrium by incubation at r.t. for at least 2 h before analysis proceeded. The myostatin beads were then used to determine the amount of free antibody present in the solution phase samples, by means of the free antibody binding to the myostatin bead matrix then detected using an appropriate secondary antibody (either anti-human or anti-mouse depending on the construct being tested) labelled with a fluorescent dye. The binding curves where fitted using the Kinexa Pro analysis software inherent to the machine. Multiple runs using varying starting concentrations of antibody were then compiled and analysed using the n-curve analysis software to give a more accurate determination of affinity.

Experiment [7] has the same target. The experiment in a line: cell-based or functional assay. The source holds these as a separate data set.
Experiment [8] has the same target. The experiment in a line: BIAcore T100 SPR, antibody captured on protein A, myostatin analyte, all curves 1:1 model. The procedure: as §1, §2
Another experiment concerns the target T2, rhBMP6 (human, UniProt P22004).
T2 construct: recombinant (rh); form not further stated; member of the growth factor panel m51, named only on the sheet
T2 sequence (looked up): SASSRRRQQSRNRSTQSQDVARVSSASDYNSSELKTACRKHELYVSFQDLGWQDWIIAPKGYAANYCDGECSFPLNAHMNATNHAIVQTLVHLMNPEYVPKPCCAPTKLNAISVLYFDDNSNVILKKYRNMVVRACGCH
The experiment in a line: ELISA: plate coated with the growth factor at 0.5 µg/ml, H8L5 titrated; read-out % Bound.

The target of a further experiment is T3, rhBMP9 (human, UniProt Q9UK05).
T3 construct: recombinant (rh); form not further stated; member of the growth factor panel m51, named only on the sheet
T3 sequence (looked up): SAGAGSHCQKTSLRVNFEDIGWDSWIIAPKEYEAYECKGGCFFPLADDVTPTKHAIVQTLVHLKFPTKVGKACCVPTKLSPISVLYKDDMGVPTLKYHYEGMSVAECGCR
The experiment is described as above.

In the next experiment the target is T4, Fc R3a Phe polymorphism (UniProt P08637 17-208, limits assumed).
T4 construct: also called FcγRIIIa Phe
The experiment in a line: ProteOn XPR36 SPR, antibody immobilised, receptor 8-2048 nM, equilibrium model. The procedure:
(§3) Binding analysis to Fc R5 and C1q was carried out using the ProteOn XPR36. The test antibodies (H8L5 and Fc-disabled H8L5) were immobilised on a GLC biosensor chip by primary amine coupling. The Fc Rs were used at 2048 nM, 512 nM, 128 nM, 32 nM and 8 nM, while C1q was used at 512 nM, 128 nM, 32 nM, 8 nM and 2 nM. A buffer injection (i.e. 0 nM) was used to double reference the binding sensorgrams. Due to the nature of the interaction (i.e. fast on/fast-off) regeneration was not required and the binding sensorgrams returned to baseline by use of a 20 min dissociation time and subsequent buffer injections. The data was fitted to the Equilibrium model inherent to the PrateOn's analysis software, using a global R-max for each receptor group and for C1q binding (i.e. Fc R 2aHis and Arg polymorphisms were analysed together and Fc R3aPhe and Val polymorphisms were analysed together, while C1q was analysed separately).

Another experiment has as its target T5, Fc R3a Val polymorphism (UniProt P08637 17-208, limits assumed).
T5 construct: also called FcγRIIIa Val
The experiment is described as above. Here is the method: as §3

A further experiment deals with T6, Fc R 2a Arg polymorphism (UniProt P12318 34-217, limits assumed).
T6 construct: also called FcγRIIa Arg
T6 sequence (looked up): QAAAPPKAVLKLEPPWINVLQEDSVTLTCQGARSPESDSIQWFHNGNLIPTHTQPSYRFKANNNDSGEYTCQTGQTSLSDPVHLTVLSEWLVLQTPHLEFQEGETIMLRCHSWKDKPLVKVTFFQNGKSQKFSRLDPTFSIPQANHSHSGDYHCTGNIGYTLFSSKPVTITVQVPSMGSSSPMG
The experiment is described as above. The procedure: as §3

The target of another experiment is T7, Fc R 2a His polymorphism (UniProt P12318 34-217, limits assumed).
T7 construct: also called FcγRIIa His
T7 sequence (looked up): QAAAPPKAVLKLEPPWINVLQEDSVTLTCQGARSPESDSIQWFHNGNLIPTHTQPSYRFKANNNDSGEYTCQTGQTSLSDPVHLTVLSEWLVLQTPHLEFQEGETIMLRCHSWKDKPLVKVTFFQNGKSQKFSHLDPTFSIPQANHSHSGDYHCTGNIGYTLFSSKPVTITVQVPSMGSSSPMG
The description is as above. Here is the method:
as §3

Experiment [9] addresses T1, recombinant mature dimeric myostatin. The experiment in a line: ActRIIb neutralisation ELISA: inhibition of 2 nM biotinylated myostatin binding to coated ActRIIb. A digest of the protocol: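 Soluble ActRIIb coated at 1 μg/ml; 2 nM biotinylated myostatin pre-incubated 30 min at 37° C with antibody dilution series, then bound to plate 1 h at 37° C. Bound myostatin detected with streptavidin-HRP, absorbance at 490 nm after acid stop.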

Experiment [10] shares this target. The experiment in a line: cell-based or functional assay. The source holds these as a separate data set.
In the next experiment the target is T8, GDF-11 (UniProt O95390 299-407).
T8 construct: also called Growth and Differentiation Factor-11
T8 sequence (looked up): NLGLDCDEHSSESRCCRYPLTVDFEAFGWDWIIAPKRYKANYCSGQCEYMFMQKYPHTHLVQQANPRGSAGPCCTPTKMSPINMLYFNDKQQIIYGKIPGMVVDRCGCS
The experiment in a line: ELISA, growth factors coated at 0.5 µg/ml, H8L5 titrated. Here is the method:
An ELISA was performed to determine whether H8L5 might bind any other growth factors and especially other members of the TGF family which were known to share some homology around the proposed epitope sequence. By coating an ELISA plate with the various growth factors at 0.5 μg/ml and titrating in H8L5 under standard ELISA conditions, It was concluded that the only other factor tested to which H8L5 could bind was GDF-11 wherein the concentration required to give 50% binding was 3-fold lower than myostatin (FIG. 22).

Read-outs that look alike come from different tables or passages of the source.

T4 sequence (P08637 17-208 limits assumed): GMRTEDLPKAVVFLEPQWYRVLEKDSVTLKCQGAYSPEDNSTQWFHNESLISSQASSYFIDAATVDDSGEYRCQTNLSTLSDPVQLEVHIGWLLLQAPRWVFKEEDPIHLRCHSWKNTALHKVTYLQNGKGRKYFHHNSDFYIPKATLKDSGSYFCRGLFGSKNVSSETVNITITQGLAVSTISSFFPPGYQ
T5 sequence (P08637 17-208 F176V limits assumed): as the sequence (P08637 17-208 limits assumed) above, with F160V counted along it

B1: 10B3 chimera (antibody, human IgG1, V domains shown)
VH: EVQLQQSGPELVKPGASVKISCKASGYSFTGYFMHWVKQSHGNILDWIGNIYPYNGVSNYNQRFKAKATLTVDKSSSTAYMELRSLTSEDSAVYYCARRYYYGTGPADWYFDVWGTGTLVTVSS
VL: DIKMTQSPSSMYASLRERVTITCKASQDINSYLSWFQQKPGKSPKTLIYRANRLVDGVPSRFSGSGSGQDYSLTISSLEYEDMGIYYCLQCDEFPLTFGAGTKLELKR
notes: 10B3 variable regions on human IgG1/k wild type constant regions; also called HCLC; HcLc
B1: the IC50 in [1] is 0.138 µg/mL. Moreover, the results for the Kd in [2], in [6] and in experiment [8] were 3.6 nM, 0.548 nM and 0.088 nM, respectively. The figures for the “Mean IC50, A204 in vitro activity assay” value in experiment [3] and in experiment [4] were 3.53 nM and 3.57 nM, respectively. Also, the EC50 in experiment [5] came to 0.049 µg/mL. Also, in experiment [7], the “IC50, myostatin responsive reporter gene assay (A204 cells, luciferase)” value is 6.2 nM.

B2: H8L5 (antibody, IgG1)
heavy: not shown
light: DIQMTQSPSSLSASVGDRVTITCKASQDINSYLSWFQQKPGKAPKTLIYRANRLVDGVPSKFSGSGSGTDYTLTISSLQPEDFATYYCLQSDEFPLTFGQGTKLEIKRTVAAPSVFIFPPSDEQLKSGTASVVCLLNNFYPREAKVQWKVDNALQSGNSQESVTEQDSKDSTYSLSSTLTLSKADYEKHKVYACEVTHQGLSSPVTKSFNRGEC
notes: Humanised IgG1/kappa; also called 10B3H8L5; copies: 2 + 2
In the case of B2, the binding result in the experiment with rhBMP6 was “no binding (tested: 10^-7 (axis prints no unit))”; in the experiment with rhBMP9, “no binding (tested: 10^-7 (axis prints no unit))”; with Fc R3a Phe polymorphism, “binds”; in the experiment with Fc R3a Val polymorphism, “binds”; with Fc R 2a Arg polymorphism, “binds”; in the experiment with Fc R 2a His polymorphism, “binds”. Moreover, the IC50 in experiment [9] was 0.101 nM. The “IC50, myostatin responsive reporter gene neutralisation assay (A204)” value in [10] amounted to 5 nM. In addition, the Kd in experiment [6] was found to be 0.05 nM. In addition, the “fold lower concentration required to give 50% binding than for myostatin” value in the experiment with GDF-11 came to 3 fold.

B3: Fc-disabled H8L5 (antibody, IgG1)
heavy: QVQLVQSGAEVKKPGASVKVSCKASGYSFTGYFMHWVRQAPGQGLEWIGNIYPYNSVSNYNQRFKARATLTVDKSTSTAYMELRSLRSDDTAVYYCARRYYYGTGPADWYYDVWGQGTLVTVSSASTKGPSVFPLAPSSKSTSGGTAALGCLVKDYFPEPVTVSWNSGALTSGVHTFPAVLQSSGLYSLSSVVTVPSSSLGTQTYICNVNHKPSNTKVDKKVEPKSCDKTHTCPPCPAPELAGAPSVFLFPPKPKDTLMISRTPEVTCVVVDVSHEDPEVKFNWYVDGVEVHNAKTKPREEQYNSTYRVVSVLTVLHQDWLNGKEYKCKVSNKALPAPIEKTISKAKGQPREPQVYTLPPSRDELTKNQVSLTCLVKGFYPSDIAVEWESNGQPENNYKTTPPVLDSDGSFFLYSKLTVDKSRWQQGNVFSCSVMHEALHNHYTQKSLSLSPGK
light: DIQMTQSPSSLSASVGDRVTITCKASQDINSYLSWFQQKPGKAPKTLIYRANRLVDGVPSKFSGSGSGTDYTLTISSLQPEDFATYYCLQSDEFPLTFGQGTKLEIKRTVAAPSVFIFPPSDEQLKSGTASVVCLLNNFYPREAKVQWKVDNALQSGNSQESVTEQDSKDSTYSLSSTLTLSKADYEKHKVYACEVTHQGLSSPVTKSFNRGEC
notes: hIgG1 Fc disabled (L235A, G237A, EU numbering); also called H8L5 disabled; H8disabledL5; copies: 2 + 2
B3: the binding result with Fc R3a Phe polymorphism, in the experiment with Fc R3a Val polymorphism, with Fc R 2a Arg polymorphism and in the experiment with Fc R 2a His polymorphism was “binds” throughout.

As a reminder, the IC50 is the concentration needed to halve the response being measured. As usually defined, the EC50 is the concentration at which the effect is half-maximal.

The values above are taken from patent US20130142788A1 (published 2013).
